Measured values: US20210380702A1

Molecular target: recombinant human PD-L1 (amino acids 19-239 of NP_054862.1) expressed with a C-terminal human IgG1 Fc tag (human)
Test: SPR (Biacore 3000): 100 nM hPD-L1-hFc + 500 nM mAb on captured hPD-1-mFc, 25C

Sequence of recombinant human PD-L1 (amino acids 19-239 of NP_054862.1) expressed with a C-terminal human IgG1 Fc tag (human) (chain, as listed by the source limits assumed): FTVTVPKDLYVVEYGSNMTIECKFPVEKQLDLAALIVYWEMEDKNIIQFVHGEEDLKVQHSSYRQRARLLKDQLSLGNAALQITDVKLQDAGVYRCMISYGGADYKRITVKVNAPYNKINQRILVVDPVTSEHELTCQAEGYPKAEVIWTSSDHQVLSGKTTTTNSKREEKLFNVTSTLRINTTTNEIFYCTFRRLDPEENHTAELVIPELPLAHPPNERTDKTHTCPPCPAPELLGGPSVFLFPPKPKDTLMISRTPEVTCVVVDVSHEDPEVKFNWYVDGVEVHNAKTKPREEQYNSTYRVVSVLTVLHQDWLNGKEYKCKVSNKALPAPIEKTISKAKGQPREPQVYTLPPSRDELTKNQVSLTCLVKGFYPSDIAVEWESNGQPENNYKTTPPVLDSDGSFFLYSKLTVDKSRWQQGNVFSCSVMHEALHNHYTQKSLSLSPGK

% Blocking: 0%
Substance: Isotype control antibody (Table 13, Biacore assay of human Fc antibodies)
